Laboratory results as given in US11155793B2, “Phytase variants YeAPPA having improved gastric protein resistance and acid resistance, and increased catalytic efficiency” (priority 2017, dated 2021).

How the values were obtained:
[1] = target: wild phytase YeAPPA, SEQ ID NO.1 (Yersinia enterocolitica, UniProt D9D7K9); assay: Kinetic parameters of wild phytase on sodium phytate (double reciprocal method); format: biochemical; conditions: optimal pH 5, 45° C.
[2] = target: phytase YeAPPA variant YeAPPA-E230P (Glu230 into proline), SEQ ID NO.6 (Yersinia enterocolitica, UniProt D9D7K9, E230P); assay: Kinetic parameters of phytase variant YeAPPA-E230P on sodium phytate; conditions: YeAPPA-E230P vs wild phytase, in words
Method: According to embodiment of the present invention, the phytase variant YeAPPA-E230P with amino acid sequence as set forth in SEQ ID NO.6 is obtained by mutation at the 230th site of glutamic acid into proline for phytase with amino acid as set forth in SEQ ID NO.1.
The modified gene encoding the phytase variants were inserted into expression vector pET-22b (+), and transformed into E coli.
The effect of pepsin on the activity of the purified mutant phytase was determined by detecting the remained activity after being treated in pH 2 for 2 hours with the different concentrations of pepsin in a mass ratio to phytase ranging from 1/1000 to 1/1. […] After developing, OD is measured at 700 nm to calculate the phytase activity. 1 unit of phytase activity is determined to be the enzyme amount releasing 1 μmol of phosphate for 1 minute. The absolute value of the measured phytase activity may be calculated based on the standard curve of inorganic phosphate in dilution.

[3] = target: phytase YeAPPA variant YeAPPA-L162A (Leu162 into alanine), SEQ ID NO.4 (Yersinia enterocolitica, UniProt D9D7K9, L162A); assay: Kinetic parameters of phytase variant YeAPPA-L162A on sodium phytate; conditions: YeAPPA-L162A vs wild phytase, in words
[4] = target: phytase YeAPPA variant YeAPPA-E230G (Glu230 into glycine), SEQ ID NO.5 (Yersinia enterocolitica, UniProt D9D7K9, E230G); assay: Kinetic parameters of phytase variant YeAPPA-E230G on sodium phytate; conditions: YeAPPA-E230G vs wild phytase
[5] = target: phytase YeAPPA variant YeAPPA-L162G (Leu162 into glycine), SEQ ID NO.3 (Yersinia enterocolitica, UniProt D9D7K9, L162G); assay: Kinetic parameters of phytase variant YeAPPA-L162G on sodium phytate; conditions: YeAPPA-L162G vs wild phytase
[6] = target: phytase YeAPPA variant YeAPPA-E230R (Glu230 into arginine), SEQ ID NO.7 (Yersinia enterocolitica, UniProt D9D7K9, E230R); assay: Kinetic parameters of phytase variant YeAPPA-E230R on sodium phytate; conditions: YeAPPA-E230R vs wild phytase, in words
[7] = tested on: O=P(O)(O)O[C@H]1[C@H](OP(=O)(O)O)[C@@H](OP(=O)(O)O)[C@H](OP(=O)(O)O)[C@@H](OP(=O)(O)O)[C@H]1OP(=O)(O)O; assay: purified protein, by the assay type; conditions: sodium phytate 0.0625-1.5 mmol/L
[8] = other: YeAPPA-E230G, optimal pH 5, 45° C.
[9] = other: YeAPPA-E230P, optimal pH 5, 50° C.
[10] = other: YeAPPA-E230R, optimal pH 4, 45° C.
[11] = other: YeAPPA-L162A, optimal pH 5, 45° C.
[12] = other: YeAPPA-L162G, optimal pH 5, 45° C.

O=P(O)(O)O[C@H]1[C@H](OP(=O)(O)O)[C@@H](OP(=O)(O)O)[C@H](OP(=O)(O)O)[C@@H](OP(=O)(O)O)[C@H]1OP(=O)(O)O [sodium phytate]
Kcat/Km [1]: 26 S^−1 mM^−1
Vmax [1]: 6.4 U mg^−1
Kcat ([1]; from theoretical molecular weight): 4.9 S^−1
reaction rate, conversion rate and catalytic efficiency compared with wild phytase [2]: almost same as those of the wild phytase
reaction rate, conversion rate and catalytic efficiency compared with wild phytase [3]: almost same as those of the wild phytase
Catalytic efficiency Kcat/km relative to wild phytase [4]: 2.5 times
Conversion rate Kcat relative to wild phytase [4]: 2.5 times
Reaction rate Vmax relative to wild phytase [4]: 2.5 times
Catalytic efficiency Kcat/km relative to wild phytase [5]: 1.7 times
reaction rate, conversion rate and catalytic efficiency compared with wild phytase [6]: almost same as those of the wild phytase

phytase YeAPPA variant YeAPPA-E230G (Glu230 into glycine), SEQ ID NO.5 (Yersinia enterocolitica; E230G)
Km [7, 8]: 190 µM
Vmax [7, 8]: 16 µmol/min/mg
kcat [7, 8]: 12 s⁻¹
kcat/Km [7, 8]: 64000 M⁻¹ s⁻¹

phytase YeAPPA variant YeAPPA-E230P (Glu230 into proline), SEQ ID NO.6 (Yersinia enterocolitica; E230P)
Km [7, 9]: 190 µM
Vmax [7, 9]: 6.7 µmol/min/mg
kcat [7, 9]: 5.1 s⁻¹
kcat/Km [7, 9]: 26000 M⁻¹ s⁻¹

phytase YeAPPA variant YeAPPA-E230R (Glu230 into arginine), SEQ ID NO.7 (Yersinia enterocolitica; E230R)
Km [7, 10]: 180 µM
Vmax [7, 10]: 6.3 µmol/min/mg
kcat [7, 10]: 4.8 s⁻¹
kcat/Km [7, 10]: 26000 M⁻¹ s⁻¹

phytase YeAPPA variant YeAPPA-L162A (Leu162 into alanine), SEQ ID NO.4 (Yersinia enterocolitica; L162A)
Km [7, 11]: 190 µM
Vmax [7, 11]: 6.5 µmol/min/mg
kcat [7, 11]: 5 s⁻¹
kcat/Km [7, 11]: 27000 M⁻¹ s⁻¹

phytase YeAPPA variant YeAPPA-L162G (Leu162 into glycine), SEQ ID NO.3 (Yersinia enterocolitica; L162G)
Km [7, 12]: 190 µM
Vmax [7, 12]: 11 µmol/min/mg
kcat [7, 12]: 8.2 s⁻¹
kcat/Km [7, 12]: 43000 M⁻¹ s⁻¹
